Laboratory results from patent publication US20180238915A1 (published 2018).
Values belong to the binder of their own block, whether it stands above or below them.

Columns and labels:
[1] = target: T1, negatively modulated GCSF receptor (GCSFR(-)) (UniProt Q99062 25-621, limits assumed, modified by S-HyNic and conjugated through HyNic-4FB bonds to a 64-base DNA oligonucleotide (SEQ. ID 2, 5' C12 amino modifier); number and sites not stated); assay: off-rate by negative MCM and electrokinetic concentration; 100 nM labeled drug, 1 uM negatively modulated receptor
T1 construct: Receptor-oligonucleotide conjugate; Receptor known only by catalogue number; also called nGCSFR; nTPR
T1 sequence (looked up): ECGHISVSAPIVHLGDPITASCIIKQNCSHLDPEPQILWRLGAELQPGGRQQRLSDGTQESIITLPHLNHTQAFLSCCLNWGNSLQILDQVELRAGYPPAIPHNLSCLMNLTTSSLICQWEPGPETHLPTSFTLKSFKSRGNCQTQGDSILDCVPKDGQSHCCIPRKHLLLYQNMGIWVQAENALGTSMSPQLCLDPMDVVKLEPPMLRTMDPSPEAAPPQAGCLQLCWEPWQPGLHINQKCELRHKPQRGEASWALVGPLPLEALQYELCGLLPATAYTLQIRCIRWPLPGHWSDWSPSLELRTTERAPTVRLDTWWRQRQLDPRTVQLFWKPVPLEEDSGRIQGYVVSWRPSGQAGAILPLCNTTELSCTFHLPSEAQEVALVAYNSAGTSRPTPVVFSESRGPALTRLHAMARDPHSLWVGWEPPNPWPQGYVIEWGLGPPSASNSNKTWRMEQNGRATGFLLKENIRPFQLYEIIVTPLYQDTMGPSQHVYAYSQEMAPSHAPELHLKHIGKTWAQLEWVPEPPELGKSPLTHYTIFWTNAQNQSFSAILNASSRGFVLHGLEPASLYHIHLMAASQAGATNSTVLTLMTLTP
Procedure: The dissociation rate of drug-receptor binding, koff was measured by monitoring the evolution of the peak of complex and fitting it with the aforementioned derived equation.

[2] = target: T2, positively modulated granulocyte colony stimulating factor receptor (pGCSFR) (UniProt Q99062 25-621, limits assumed, C-terminal Lys carries 5-FAM; C-terminal amide (CONH2); N-terminus modified by 6-(BOC-hydrazino)nicotinic acid for conjugation to the receptor; modified by Sulfo-S-4FB and conjugated through a …); assay: direct assay by positive MCM and electrokinetic concentration; 1 nM pGCSFR, 0-81 nM G-CSF, 30 min incubation, 30 V 15 min
T2 construct: Receptor-peptide conjugate; Receptor known only by catalogue number
T2 sequence: T1 sequence (looked up)
T2 sequence (peptide): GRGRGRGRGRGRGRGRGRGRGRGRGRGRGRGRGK
Text: The dose-response curves were plotted by fitting the experimental results with the classic second-order binding model.

dissociative half-life [1]: 5.5 h
B1: labeled G-CSF (Alexa Fluor 488) (ligand, UniProt P09919-2 31-204, looked up)
chain: TPLGPASSLPQSFLLKCLEQVRKIQGDGAALQEKLCATYKLCHPEELVLLGHSLGIPWAPLSSCPSQALQLAGCLSQLHSGLFLYQGLLQALEGISPELGPTLDTLQLDVADFATTIWQQMEELGMAPALQPTQGAMPAFASAFQRRAGGVLVASHLQSFLEVSYRVLRHLAQP
modifications: Alexa Fluor 488 label (carboxylic acid succinimidyl ester); sites not stated

Kd [2]: ~0.7 nM
B2: granulocyte colony stimulating factor (G-CSF) (ligand, UniProt P09919-2 31-204, looked up)
chain: B1 chain
notes: Unlabeled Sandoz G-CSF
